From patent publication US6133417 come the findings set out here.

The target in assay [1] is NADPH-cytochrome P-450 oxidoreductase purified from Sorghum bicolor (Sorghum bicolor).
For assay [2] the target is unchanged. This is another data set of the same source.

Consider “modified cytochrome P-450TYR, in which the 35 N-terminal amino acids are replaced by the nine N-terminal amino acids from bovine 17alpha hydroxylase, expressed in E. coli (from UniProt P05185) (enzyme)”, for which the oxime production in reconstitution experiments in dilaurylphosphatidylcholine micelles (turnover rate) (nmol oxime per nmol P-450TYR per minute) in assay [1] was 349.

B1: cytochrome P-450TYR from Sorghum bicolor (L.) Moench (enzyme)
chain: ATMEVEAAAATVLAAPLLSSSAILKLLLFVVTLSYLARALRRPRKSTTKCSSTTCASPPAGVGNPPLPPGPVPWPVVGNLPEMLLNKPAFRWIHQMMREMGTDIACVKLGGVHVVSITCPEIAREVLRKQDANFISRPLTFASETFSGGYRNAVLSPYGDQWKKMRRVLTSEIICPSRHAWLHDKRTDEADNLTRYVYNLATKAATGDVAVDVRHVARHYCGNVIRRLMFNRRYFGEPQADGGPGPMEVLHMDAVFTSLGLLYAFCVSDYLPWLRGLDLDGHEKIVKEANVAVNRLHDTVIDDRWRQWKSGERQEMEDFLDVLITLKDAQGNPLLTIEEVKAQSQDITFAAVDNPSNAVEWALAEMVNNPEVMAKAMEELDRVVGRERLVQESDIPKLNYVKACIREAFRLHPVAPFNVPHVALADTTIAGYRVPKGSHVILSRTGLGRNPRVWDEPLRFYPDRHLATAASDVALTENDLRFISFSTGRRGCIAASLGTAMSVMLFGRLLQGFTWSKPAGVEAVDLSESKSDTFMATPLVLHAEPRLPAHLYPSISI
Molecule B1 came in with a conversion of L-tyrosine to p-hydroxyphenylacetaldehyde oxime by the enzyme reconstituted in DLPC micelles (turn-over number) in assay [2] of 228 min⁻¹.
